{"source": "paper PMC12141448", "key": {"[1]": {"biological_target": "PelC lipoprotein of P. aeruginosa PAO1 (Pseudomonas aeruginosa PAO1)", "assay": "cryo-EM structure; PelBC complex in MSP1D1 nanodiscs (POPC:POPG 70:30), 50 mM HEPES pH 7.4, 150 mM NaCl; no symmetry imposed; 2.52 Å"}, "[2]": {"biological_target": "PelB of P. aeruginosa PAO1, C-terminal fragment (residues 762-1193) with three periplasmic TPR repeats and the transmembrane β-barrel (Pseudomonas aeruginosa PAO1) (UniProt Q9HZE5)", "assay": "cryo-EM structure; PelBC complex in MSP1D1 nanodiscs (POPC:POPG 70:30), 50 mM HEPES pH 7.4, 150 mM NaCl; no symmetry imposed; 2.52 Å"}}}
{"substance": "PelC lipoprotein of P. aeruginosa PAO1 (natural protein)", "values": [{"measurement": "stoichiometry N", "setting": "[1]", "result": 12, "unit": "subunits"}, {"measurement": "stoichiometry N (PelC per PelB)", "setting": "[2]", "result": 12}]}
